Source: the supplement of paper PMC10724198
± gives the standard deviation of the averaged measurements.

System: Saccharomyces cerevisiae
Assay: protein stability index of tFT-peptide fusion (C-terminal peptide) (PSI (0-1 scale)); higher = more stable (slower turnover)
Settings: temperature: 30 C
Experimental: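 MPS profiling in S. cerevisiae of the yeast C-terminome library: the last 12 aa of each annotated ORF are fused to the C-terminus of a sfGFP-mCherry timer, after a GGGS linker. Cells are FACS-sorted into 8 mCherry/sfGFP bins and deep-sequenced. PSI runs from 0 (unstable) to 1 (stable); wild type and das1Δ backgrounds, two technical replicates each.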

[1] = genetic background: das1 deletion

| Sequence | protein stability index [1] | protein stability index (genetic background: wild type) |
| --- | --- | --- |
| IKPSWENEKNIS [ARG2 C-terminal 12 aa] | 0.69 ± 0.02 | 0.684 ± 0.028 |
| GLLMAGKASEFQ [VMA16 C-terminal 12 aa] | 0.694 ± 0.013 | 0.72 ± 0.035 |
| AKNARPSKKRKF [DBP10 C-terminal 12 aa] | 0.752 ± 0.025 | 0.6782 ± 0.0047 |
| LSFVLASLNANK [FUN14 C-terminal 12 aa] | 0.678 ± 0.021 | 0.67 ± 0.037 |
| KSLETFRTTNTL [FBA1 C-terminal 12 aa] | 0.69 ± 0.011 | 0.7271 ± 0.0061 |
| SDDNNDENMDLD [SSE2 C-terminal 12 aa] | 0.694 ± 0.014 | 0.663 ± 0.018 |
| TKISIRKAPKFF [MRPL31 C-terminal 12 aa] | 0.701 ± 0.019 | 0.656 ± 0.024 |
| LEQYEKTLVHDD [GCV3 C-terminal 12 aa] | 0.6942 ± 0.00074 | 0.678 ± 0.05 |
| ANESLEEDLNLD [YBR137W C-terminal 12 aa] | 0.698 ± 0.031 | 0.661 ± 0.025 |
| DAFEKAIEAVYA [ARG8 C-terminal 12 aa] | 0.546 ± 0.014 | 0.558 ± 0.012 |
| YSINPDEIELDI [SYF1 C-terminal 12 aa] | 0.707 ± 0.025 | 0.698 ± 0.029 |
| CKYPTKDIPIFF [RAD17 C-terminal 12 aa] | 0.727 ± 0.013 | 0.734 ± 0.013 |
| QTQLCKRKKKLT [VIK1 C-terminal 12 aa] | 0.687 ± 0.024 | 0.608 ± 0.051 |
| LYAFHQVGIHFS [DIM1 C-terminal 12 aa] | 0.709 ± 0.032 | 0.685 ± 0.014 |
| LLMVGVPLLFSS [YPR159C-A C-terminal 12 aa] | 0.6249 ± 0.00071 | 0.6282 ± 0.0051 |
| DNDDDAGAVPTS [CDC13 C-terminal 12 aa] | 0.7113 ± 0.0012 | 0.684 ± 0.011 |
| PYLEEAYSNLEE [PPX1 C-terminal 12 aa] | 0.685 ± 0.0024 | 0.722 ± 0.048 |
| RELWDEEKEIVL [KES1 C-terminal 12 aa] | 0.704 ± 0.033 | 0.73 ± 0.037 |
| TEMATDASARMV [TPO4 C-terminal 12 aa] | 0.687 ± 0.0097 | 0.682 ± 0.0089 |
| AKDAFTSTLPTH [GFD2 C-terminal 12 aa] | 0.7 ± 0.017 | 0.716 ± 0.021 |
| LRNKPFWENKRL [IPL1 C-terminal 12 aa] | 0.702 ± 0.019 | 0.696 ± 0.015 |

| Sequence | protein stability index [1] | protein stability index (genetic background: wild type) |
| --- | --- | --- |
| LCILRIVGVANF [YER039C-A C-terminal 12 aa] | 0.426 ± 0.0017 | 0.4474 ± 0.0034 |
| LYSFNQLEPLQT [GIC2 C-terminal 12 aa] | 0.703 ± 0.0092 | 0.669 ± 0.025 |
| YERERKLRGGKK [NOP14 C-terminal 12 aa] | 0.702 ± 0.027 | 0.692 ± 0.072 |
| ELTFDVKLVSMK [FPR4 C-terminal 12 aa] | 0.686 ± 0.0071 | 0.687 ± 0.034 |
| EKKFKEILNIQW [PET112 C-terminal 12 aa] | 0.709 ± 0.025 | 0.722 ± 0.01 |
| KEKKDKKKKSKD [NOP56 C-terminal 12 aa] | 0.686 ± 0.025 | 0.661 ± 0.022 |
| RHICVGAKLCKF [MCH4 C-terminal 12 aa] | 0.8165 ± 0.0035 | 0.818 ± 0.11 |
| PAAKGKNLSFKR [RRP6 C-terminal 12 aa] | 0.7188 ± 0.0035 | 0.709 ± 0.015 |
| FRNYRGHYRGRK [SGS1 C-terminal 12 aa] | 0.705 ± 0.03 | 0.685 ± 0.039 |
| DGFSVPITTFQT [CDC15 C-terminal 12 aa] | 0.712 ± 0.011 | 0.709 ± 0.045 |
| HPTSAEELVTMR [GLR1 C-terminal 12 aa] | 0.7175 ± 0.007 | 0.693 ± 0.071 |
| SRILQYKCIFTY [ARP8 C-terminal 12 aa] | 0.517 ± 0.023 | 0.2402 ± 0.0014 |
| EFAKCEFETPAV [CKB1 C-terminal 12 aa] | 0.722 ± 0.011 | 0.74 ± 0.0048 |
| CMRPANQEIYPL [YLR157W-D C-terminal 12 aa] | 0.704 ± 0.02 | 0.681 ± 0.017 |
| STTIRAINALYS [HSP32 C-terminal 12 aa] | 0.675 ± 0.017 | 0.65 ± 0.037 |
| TLKKRFGLVPGQ [NOP10 C-terminal 12 aa] | 0.7141 ± 0.0036 | 0.686 ± 0.029 |
| YEYHTEEDVMYA [YGR130C C-terminal 12 aa] | 0.703 ± 0.013 | 0.684 ± 0.044 |
| FTGGDILPPEFN [SPS18 C-terminal 12 aa] | 0.7639 ± 0.0048 | 0.739 ± 0.015 |
| KLMEAIFRIRTI [YKL106C-A C-terminal 12 aa] | 0.7668 ± 0.0015 | 0.152 ± 0.0039 |
| ILGNMEKKKNQD [EPS1 C-terminal 12 aa] | 0.733 ± 0.021 | 0.751 ± 0.013 |
| YSSRRWRLDTHD [RTC4 C-terminal 12 aa] | 0.763 ± 0.034 | 0.752 ± 0.058 |

| Sequence | protein stability index [1] | protein stability index (genetic background: wild type) |
| --- | --- | --- |
| RELGFLFGLNAL [ULS1 C-terminal 12 aa] | 0.751 ± 0.011 | 0.6855 ± 0.0018 |
| LVASNFFYAETK [TFS1 C-terminal 12 aa] | 0.7066 ± 0.00069 | 0.687 ± 0.028 |
| ESDDDMGFGLFD [RPP0 C-terminal 12 aa] | 0.7176 ± 0.002 | 0.717 ± 0.016 |
| IFWLALIYNAIQ [LOH1 C-terminal 12 aa] | 0.479 ± 0.016 | 0.43 ± 0.027 |
| GECVLTKNNKFT [ATG21 C-terminal 12 aa] | 0.672 ± 0.034 | 0.652 ± 0.026 |
| TEKKINTRPPFR [DAM1 C-terminal 12 aa] | 0.7012 ± 0.0011 | 0.656 ± 0.011 |
| LSLIYSPHLYMS [YJL136W-A C-terminal 12 aa] | 0.643 ± 0.013 | 0.101 ± 0.0022 |
| IDNVIISGKDEY [CCT5 C-terminal 12 aa] | 0.7033 ± 0.0056 | 0.6529 ± 0.0048 |
| DTFPRWEGIKSK [PAD1 C-terminal 12 aa] | 0.70511 ± 2.5e-05 | 0.6968 ± 0.0043 |
| THKKPGFENYSI [IRC13 C-terminal 12 aa] | 0.70632 ± 0.00041 | 0.704 ± 0.017 |
| TVIFSCVPGRRV [RAX1 C-terminal 12 aa] | 0.7205 ± 0.0062 | 0.709 ± 0.0011 |
| WVAHSKTKLATK [CAB2 C-terminal 12 aa] | 0.677 ± 0.014 | 0.70267 ± 0.00017 |
| EEKKKQEEGHSN [MNN4 C-terminal 12 aa] | 0.699 ± 0.0072 | 0.663 ± 0.03 |
| QRRTSLDYGGYF [TAF3 C-terminal 12 aa] | 0.708 ± 0.02 | 0.725 ± 0.011 |
| KSVPILLPQVCM [YIL059C C-terminal 12 aa] | 0.5945 ± 0.0057 | 0.578 ± 0.0092 |
| GTVNYAGLHDEL [SED4 C-terminal 12 aa] | 0.687 ± 0.034 | 0.723 ± 0.044 |
| FLNIENPENQSE [RCO1 C-terminal 12 aa] | 0.687 ± 0.01 | 0.674 ± 0.018 |
| HERKRNKVLNTT [CMR3 C-terminal 12 aa] | 0.704 ± 0.021 | 0.661 ± 0.043 |
| SQSKIKAKIRPE [YJL193W C-terminal 12 aa] | 0.7134 ± 0.0044 | 0.666 ± 0.011 |
| KQKEAWYSFLFK [SCO1 C-terminal 12 aa] | 0.7138 ± 0.0035 | 0.68151 ± 0.00058 |
| VTVSNVWFNQLQ [YPL197C C-terminal 12 aa] | 0.70615 ± 0.00045 | 0.526 ± 0.014 |

| Sequence | protein stability index [1] | protein stability index (genetic background: wild type) |
| --- | --- | --- |
| FTHFTSSKDRKD [SIT1 C-terminal 12 aa] | 0.711 ± 0.026 | 0.699 ± 0.021 |
| HIFEKKIFHTNL [YOL097W-A C-terminal 12 aa] | 0.706 ± 0.018 | 0.65 ± 0.027 |
| TLKKVTQNFYFD [LMO1 C-terminal 12 aa] | 0.7094 ± 0.0054 | 0.6724 ± 0.0018 |
| NIGSPLGAPKKK [MBF1 C-terminal 12 aa] | 0.696 ± 0.031 | 0.7008 ± 0.0064 |
| HYPLNSIPFTVT [YMR326C C-terminal 12 aa] | 0.706 ± 0.019 | 0.775 ± 0.087 |
| VRLRGRKRSMLG [BUD32 C-terminal 12 aa] | 0.701 ± 0.02 | 0.665 ± 0.023 |
| LQESKSQEKNKI [MRX19 C-terminal 12 aa] | 0.7135 ± 0.0016 | 0.782 ± 0.06 |
| LFFLVGLQLAIP [YGR022C C-terminal 12 aa] | 0.324 ± 0.002 | 0.327 ± 0.0074 |
| ILWLKLEKRIEN [YLR339C C-terminal 12 aa] | 0.711 ± 0.025 | 0.703 ± 0.01 |
| KYFLRMVYPMKV [ESBP6 C-terminal 12 aa] | 0.4888 ± 0.0038 | 0.404 ± 0.031 |
| LKHNGQRKLAST [ANT1 C-terminal 12 aa] | 0.685 ± 0.034 | 0.701 ± 0.033 |
| ITHLKAILPKYL [CCA1 C-terminal 12 aa] | 0.695 ± 0.0085 | 0.324 ± 0.0095 |
| MHQYSAIIPSGT [YJL182C C-terminal 12 aa] | 0.642 ± 0.019 | 0.603 ± 0.0061 |
| KAKFEGKKIKFD [BUD22 C-terminal 12 aa] | 0.678 ± 0.011 | 0.7092 ± 0.0046 |
| RSKLFNLSINNP [SPC72 C-terminal 12 aa] | 0.6997 ± 0.001 | 0.6855 ± 0.0063 |
| RSRKNEGSYLMH [HMT1 C-terminal 12 aa] | 0.6967 ± 0.00082 | 0.693 ± 0.0082 |
| TNERQLNPWICN [YML090W C-terminal 12 aa] | 0.7061 ± 0.0031 | 0.688 ± 0.031 |
| DDAVNCNTSNCL [ZRC1 C-terminal 12 aa] | 0.7026 ± 0.002 | 0.698 ± 0.017 |
| SDDQILREFLYS [IRE1 C-terminal 12 aa] | 0.726 ± 0.004 | 0.7 ± 0.025 |
